Results: publication PMC7352350, “Molecular Interactions Stabilizing the Promatrix Metalloprotease-9·Serglycin Heteromer” (International Journal of Molecular Sciences, 2020)

B1: SG peptide 23 with D46 changed to A (peptide, UniProt P10124 72-91, looked up)
peptide: TALFPKTRIQDLNRIFPLSE
notes: serglycin core protein, mutated 20-mer of spot 23; numbers count on: the mature protein (1-131); source: synthetic peptide on a cellulose membrane
B2: recombinant proMMP-9 lacking the HPX domain (domain or fragment, human, UniProt P14780 20-515, looked up)
chain: APRQRQSTLVLFPGDLRTNLTDRQLAEEYLYRYGYTRVAEMRGESKSLGPALLLLQKQLSLPETGELDSATLKAMRTPRCGVPDLGRFQTFEGDLKWHHHNITYWIQNYSEDLPRAVIDDAFARAFALWSAVTPLTFTRVYSRDADIVIQFGVAEHGDGYPFDGKDGLLAHAFPPGPGIQGDAHFDDDELWSLGKGVVVPTRFGNADGAACHFPFIFEGRSYSACTTDGRSDGLPWCSTTANYDTDDRFGFCPSERLYTQDGNADGKPCQFPFIFQGQSYSACTTDGRSDGYRWCATTANYDRDKLFGFCPTRADSTVMGGNSAGELCVFPFTFLGKEYSTCTSEGRGDGRLWCATTSNFDSDKKWGFCPDQGYSLFLVAAHEFGHALGLDHSSVPEALMYPMYRFTEGPPLHKDDVNGIRHLYGPRPEPEPRPPTTTTPQPTAPPTVCPTGPPTVHPSERPTAGPTGPPSAGPTGPPTAGPSTATTVPLSPVDDA
notes: MMP-9 proenzyme, human; stop codon behind the codon for A515; the mature proenzyme starts at 20; also called rpMMP-9ΔHPX; proMMP-9ΔHPX; source: Sf9, baculovirus, purified (gelatin-Sepharose)
B3: proMMP-9 purified from THP-1 cells (enzyme, human (endogenous in THP-1), UniProt P14780 20-707, looked up)
chain: APRQRQSTLVLFPGDLRTNLTDRQLAEEYLYRYGYTRVAEMRGESKSLGPALLLLQKQLSLPETGELDSATLKAMRTPRCGVPDLGRFQTFEGDLKWHHHNITYWIQNYSEDLPRAVIDDAFARAFALWSAVTPLTFTRVYSRDADIVIQFGVAEHGDGYPFDGKDGLLAHAFPPGPGIQGDAHFDDDELWSLGKGVVVPTRFGNADGAACHFPFIFEGRSYSACTTDGRSDGLPWCSTTANYDTDDRFGFCPSERLYTQDGNADGKPCQFPFIFQGQSYSACTTDGRSDGYRWCATTANYDRDKLFGFCPTRADSTVMGGNSAGELCVFPFTFLGKEYSTCTSEGRGDGRLWCATTSNFDSDKKWGFCPDQGYSLFLVAAHEFGHALGLDHSSVPEALMYPMYRFTEGPPLHKDDVNGIRHLYGPRPEPEPRPPTTTTPQPTAPPTVCPTGPPTVHPSERPTAGPTGPPSAGPTGPPTAGPSTATTVPLSPVDDACNVNIFDAIAEIGNQLYLFKDGKYWRFSEGRGSRPQGPFLIADKWPALPRKLDSVFEERLSKKLFFFSGRQVWVYTGASVLGPRRLDKLGLGADVAQVTGALRSGRGKMLLFSGRRLWRFDVKAQMVDPRSASEVDRMFPGVPLDTHDVFQYREKAYFCQDRFYWRVSSRSELNQVDQVGYVTYDILQCPED
notes: matrix metalloprotease-9 proenzyme, human; pre domain cleaved off, the mature proenzyme is 20-707; the preparation holds a small amount of TIMP-1; monomer and reduction-sensitive homomultimer; also called pMMP-9; promatrix metalloprotease-9; source: purified from conditioned medium of PMA-stimulated THP-1 cells (Q-Sepharose pass-through, gelatin-Sepharose)
B4: recombinant full-length proMMP-9 (enzyme, human, UniProt P14780 20-707, looked up)
chain: B3 chain
notes: matrix metalloprotease-9 proenzyme, human, full-length; pre domain cleaved off, the mature proenzyme is 20-707; also called rpMMP-9; source: Sf9, baculovirus, purified (gelatin-Sepharose)
B5: SG peptide 21 with D46 changed to A (peptide, UniProt P10124 68-87, looked up)
peptide: PRLRTALFPKTRIQDLNRIF
notes: serglycin core protein, mutated 20-mer of spot 21; numbers count on: the mature protein (1-131); source: synthetic peptide on a cellulose membrane
B6: recombinant human His-tagged serglycin (natural protein, UniProt P10124 28-158, looked up)
chain: YPTRRARYQWVRCNPDSNSANCLEEKGPMFELLPGESNKIPRLRTDLFPKTRIQDLNRIFPLSEDYSGSGFGSGSGSGSGSGSGFLTEMEQDYQLVDESDAFHDNLRSLDRNLPSDSQDLGQHGLEEDFML
notes: serglycin core protein, human, the tag stands instead of the signal peptide; no GAG chains; numbers count on: the mature protein (1-131); also called Ht-SG; SG core protein; source: bought: ProSpec (produced in Escherichia coli)

What was measured:
[1] = target: B3; assay: peptide or protein array; mutated SG 20-mer peptides on cellulose, incubated with pMMP-9; antibody against MMP-9; conditions: both partners purified
[2] = target: the molecule itself; assay: SDS-PAGE, Western blotting and gelatin zymography under non-reducing and reducing conditions; purified preparations; SDS-stable, reduction-sensitive homomultimer beside the monomer
[3] = target: B3; assay: far-Western, overlay or dot blot; slot blot: 200 ng Ht-SG on a polyvinyl difluoride membrane, blocked with milk powder, incubated with pMMP-9 for 2.5 h at room temperature; detected with antibody against proMMP-9; conditions: both partners purified

Binder | binding result [1] | binding result [2] | also measured
B1 | binds | – | –
B2 | – | binds | –
B3 | – | binds | –
B4 | – | binds | –
B5 | binds | – | –
B6 | – | – | binding result [3]: binds
